These results are taken from the nanobody polyreactivity screen of Harvey et al. (2022).

The data set in a line: yeast display, Sf9 membrane polyspecificity reagent, FACS + sequencing; frameworks hold sequencing errors. The essentials: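 Genes from sorted yeast were amplified by colony PCR, read by MiSeq 2 × 250 sequencing and filtered on CDR length. These cells carried a synthetic nanobody library in Saccharomyces cerevisiae BJ5465 and were sorted by FACS into low and high (top ~1%) gates on anti-HA and streptavidin fluorescence. Polyreactivity is labelled according to the gate of origin.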
Consider “QVHLVESGGGLVQAGGSRRLSCAASGRISTLNALGWYRQAPGKVWEFVAAISWRGGSTYYADSVKGRFTISRDNAKNTVYVQMNSLKPEDTAVYYCAARPYTLAFYRFGYWGQGTKVTVSS”, for which the “polyreactivity (PSR sort gate)” value is on record as “high polyreactivity”.

As for “QVQLVESGGGLVQAGGSLRLSCAASGSTFPYYGLGWYRQAPGKERELVAVISRRGTGTYYADSVKGRFTISRDNAKNTVYLQMNSLKPEDTAVYYCATAGYFIYWGQGTQVTVSS”, the “polyreactivity (PSR sort gate)” value is listed as “low polyreactivity”. Under “QVQLQESGACLVLAGGSLRMSCASSGYIFDTCPMGGYRQAPGKEREFVASIDHGSNTYYADSVKGRFTISRDSAKNTVYLQLNSLKPEDTAVYYCAVRDDGSYTYGNWGQGTQVSVSS” stands “high polyreactivity”. The result for “QVQLVESGGGLVQAGGSLRLSCAASGSIFYRNTMGWYRQATGKERELVARISNGGSTNYADSVKGRFTISRDNAKNTVYLQMNSLKPEDTAVYYCNARRGSATHSVTARRGYWGQGTQVTVSS” reads “high polyreactivity”.

Take “QVQLVESGGGLVQAGGSLRLSCAASGRTFYPYAMGWYRQAPGKERELVAAIRSSGGTTYYADSVKGRFTISRDNAKNTVYLQMNSLKPEDTAVYYCAAYVDRQGGYYWGQGTQVTVSS”: the “polyreactivity (PSR sort gate)” value was “high polyreactivity”. Under “QVQLVESGGGLVQAGGSLRLTCAASGRTFRYYVMGWYRQAPGKERELVASITSDATYYADSVKGRFTISRDNAKNTVYLQLNSLKPEDTAVYYCAKRYPYRHRTYNPVAYDYWGQGTQVTVSS” stands “high polyreactivity”; under “QVQLQESVGGQVQAGGSLRLSCAASGTIFLYAFIGWYRQAPGKEPELVAAIDVGTTTNYADSVKGRFTISRDNAKNTVYLQMNSLKPEDTAVYYCAANLGYLDDLGYWGQGTQVTVSS”, “low polyreactivity”; under “QVQLVESGGGLVQAGGSLLLSCAASGRIFDLNAMGWYRQAPGKERELVAAITNTGSTNYADSVKGRFTISRDNAKNTVYLQMNSLKPEDTAVYYCARTYWLRYYGYRDDEYDYWGQGTQVTVSS”, “low polyreactivity”. Regarding “QVQLVETVGGLLQAGGSLRLSCPASGSTLYYNTMGWYRQAPGKERELVATISSRGGRTHYADSVKGRFTISRDNAKNTVYLQMNSLKPEDTAVYYCNALPRVVYTVGQSPFYYWGQGTQVTVSS”, the “polyreactivity (PSR sort gate)” value is “high polyreactivity”. The result for “QVQLVESGGGLVQAGGSLRLSCAASGRTFDWYAMGWYRQAPGKERELVAVITGRGGSTYYADSVKGRFTISRDNAKNTVYLQMNSLKPEDTAVYYCAVDRLRYRLGFGFKFDYWGQGTQVTVSS” reads “low polyreactivity”. Under “QVQLVESGGGLVQAGGSLRLSCAASGFTFPWYAMGWYSQAPGKERELVAAITSGGGSTYYADSVKGRFTISRDYAKNTVYLQMNSLKPEDTAVYYCAAVPALKWYGYEYWGQGTQVTVSS” stands “high polyreactivity”; under “QVQLVESGGGLVQAGGSLRLSCSASGSTFGRNSMGRYRQAPGKEREVVAAISWRSTRTYYADSVKGRFTISRDHAKNTVDLQMNSLKPEDNAGYYCAVYYFYPSTNCYHYDYWGQGTQVTVSS”, “high polyreactivity”. Under “QVQLVESGAGLVQAGGSLRLSCAASGFTFYPYAMGLYRQAPGKERELVAAINSGGSTYYADSVKGRFTISRDNAKNTVYLQMNSLKPEDTAVYYCAAYGKRGAVAFYYWGQGTQVTVSS” stands “high polyreactivity”; under “QVQLVESGGGLFQAGGSLRLSCAASGSTFYSYAMGWYRKAPGKERELVAAISRNGGYTYYADSVKGRFTISRDNAKNTVYLQMNSLKPEDTAVYYCAALRYVHGYDYWGQGTQVTGSS”, “high polyreactivity”. In the case of “QVQLVESGGGLVQAGGSLRLSCAASGFIFRYYAMGWYIQAPGKERELVATITRSGGSTYYADSVKGRFTLSRDNAKNTVYLQMNSLKPEDTAVYYCAADIYWYRGYGYWGQRTQVTVSS”, the “polyreactivity (PSR sort gate)” value is listed as “high polyreactivity”. The result for “QVQLVESGGGLVQAGGSLRLSCAASGRIFSRYAMGWDRQAPGKERELVAAINNGGSTYYADSVKGRFTISRDNAKNTVYLQMNSLKPEDTAVYYCAKLWWSNFKPVEYWGQGTQVTVSS” reads “low polyreactivity”. The result for “QVQLVESGGGLVQAGGSLRLSCAASGSIFGTNAMGWYRQAPGKERELVATITSAGSTYYADSVKGRFTISRDNAKNTVYLQMNSLKPEDTAVYYCARQATGYVYREYDYWGQGTQVTVSS” reads “low polyreactivity”. Consider “QVQLVESGGGLVQAGGSLRLSCAASGRTFGENTMGWYRQAPGKERELVASITWSGDSTFYADSVKGRFTISRDNAKNTVYLQMNSLKPEDTAVYYCARDDYYGSYGYDYWGQGTQVTVSS”, for which the “polyreactivity (PSR sort gate)” value is reported as “low polyreactivity”. With “QVQLVDSVGGLVQAGGSLRLSCAASGSIFGVYAKGWYRQAPGKERELVAAIDESGGSTFYADSVKGRFTISRDNAKNTVYLQMNSLKPEDTAVYYCLVFREDSGPGDYYYWGQGTQVTVSS”, the “polyreactivity (PSR sort gate)” value is recorded as “low polyreactivity”.

In the case of “QVQLVESGGGLVQAGGSLRLICAASGRTFGGNAMGWYRQAPGKEWDLVAAISYSDGSKYYADSVKGRFTISRDNANNSVYLQMNSLKPEDTAVYYCAAARHVRTDYLDYDYWGQGTQVTVSS”, the “polyreactivity (PSR sort gate)” value was “low polyreactivity”. Under “QVQLVESGGGLVQAGGSLRLICAASGFTFADNSMAWYRQAPGKEREFVASITYSTGSTYADSEKGRVTISRDNAKNTVYLEMHSLKPEDTAVYYCAVDNISNWAVENDDWGQGTLVTVSS” stands “low polyreactivity”.

As for “PVQLVESGGVLVQAGCILRLSCAASGSTFYGYAMGWYRQAPGKERELVAANTSTVITDYADSVKGRFTISRDNAKNTFYFQMNSLKPEVPAVYDCNKERATSVTAEFRGDDAYWVQGTQVTVSS”, the “polyreactivity (PSR sort gate)” value was “low polyreactivity”. Under “QFQLVESGGGLDQAGGSLRLSCAASGITFGNYAMGWYRQAPGKERELVAAITGSGGRTNYADSVKGRFTISRDNAKNTVYLQMNSLKPEDTAVYYCNRRQYGRKKQYDYWGQGTQVTVSS” stands “high polyreactivity”. The result for “QVQLVESGGGLVQAGGSLRLSCAASGGIFSTNGMGWYRQAPGKERELVATISYGGGSTSYADSVKGRFTISRDNAKNTVYLHMNSLKPEDTAVYYCAADSFGYNSWYNYDYWGQGSQVTVSS” reads “low polyreactivity”.

On to “QVQLVESGGGLLQAGGSLSLSCAASGLILANYAMGWYRQAPGKERELVAAISSSGGSTYYADSVKGRFTISRDNAKNTVYLQMNSLKPEDTAVYYCAAYPLYRRRWTGDYWGQGTQVTVSS”, for which the “polyreactivity (PSR sort gate)” value is given as “high polyreactivity”. Under “QVQLVESGGGLVQAGGSLRLSCAASGSIFRVYAMGWYRQSPGKERELVASIRSRGGSTYYADSVKGRFTISRDNAKNTVYLQMNSLKPEDTAVYYCGKSYWGGDEYWGQGTQVTVSS” stands “low polyreactivity”. Under “QVQLVESGGGLVQAGGSLRLSCAASGFIFSYYVMGWYRQAPGKERELVAAINESGGRTYYADSVKGRFTISRDNAKNTVYLQMNSLKPEDTAVYYCAASVLNKIQGYRDYYWGQGTQVTVSS” stands “low polyreactivity”; under “QVQLVESGGGLVQAGGSLRLSCAASGRIIGYYAMGWYRQAPGKERELVAAISRRGGSTYYADSVKGRFTISRDNAKNTVYLQMNSLKPEDTAVYYCNADRVLTRPRYDYWGQGTQVTVSS”, “low polyreactivity”; under “QVQLVESGGVLVQAGGSLRLSCAAYGFSFNDYAMGWYRQAPGKERELVAAIDWSGGRTYYADSVKGRFTISRDNAKNTVYLQMNSLKPEDTAVYYCAAVLYSRLYWYRLDYWGQGTQVTVSS”, “low polyreactivity”. Under “QVQLVESGGGLVQAGGSLRLSCAASGRTFLTNPMGWYRQAPGKETELVAVITSSGGTYYADSVKGRFSISRDNAKNTVYLQMNSLKPEYTEVYYCNTRQQFTLTRGVFLHNYWGQGTQVTVSS” stands “high polyreactivity”; under “QDQLVESGGGLVQAGGSLRLSCAASGSIFRYYDMGWSRQAPGKERELVAAISDSTGTTYYADSVKGRFTISRDNAKNTVYLQMNSLKPEDTAVYYCNTAYNRYWRPFNSLYYWGQGTQVTVSS”, “high polyreactivity”; under “QVQLVESGGGLVQAGGTLRLSCAASGSTFNEYAMGWYRQAPGKERELVAAIDERGGNTYYADSVKGRFTISRDNAKNTVYLQMNSLKPEDTAVYYCAADAYPYYQSYYPFEYWGQGTQVTVSS”, “low polyreactivity”.

Regarding “QVQLVESGVGLVQAGGSLRLSCAASGSTFYRNTMGWYRQAPGKERELVAAINTSGASTYYADSVKGRFTISRDNAKNTVYLQMNSLKPEDTAVYYCAALYRGYTGGYKFYYWGQGTQVTVSS”, the “polyreactivity (PSR sort gate)” value was “high polyreactivity”. Under “QVQLVESGGGLVQAGGSLRLSCAASGFIFYRNAMGWYRQAPGKERELVAAISVDGSTYYADSVKGRFTISRDNAKNTVYLQMNSQKPEDTAVYYCAAEYYSSYYQYVIYGYWGQGTQVTVSS” stands “low polyreactivity”. Under “PVQLVESGGGLVQAGGSLRLSCAASGSTFPYYDMGWYRPAPGKEREMVAAISASTGSTYYADSVKGRFTISRDKAKITVYLHMYSLKPEVTAVYYCAAAYYYWYTAYDYWGQGTQVTVSS” stands “high polyreactivity”. The result for “QVQLLESGGGLVQAGGSLRLSCAASGSIFDPYAMGWYRQAPGKERELVAVINDGGRTTYADSVKGRFTISRDNAKNTVYLQMNRLKPEDTAVYYCAATSYFSRWDLYGYWGQGTQVTVSS” reads “low polyreactivity”. As for “QVQLVESGGGLVQAGGSLRLSCAASGRTIPTYVMGWYRQAPGKERELVASIRSGGRTKYADSVKGRFTISRDNAKNTVYLQMNSLKPEDTAVYYCAADYHGSPEYDYWGQGTQVTVSS”, the “polyreactivity (PSR sort gate)” value is listed as “low polyreactivity”. Take “QVQLVESGGGLVQAGGSLRLSCAASGITFVYYAMGWYRQAPGKERELVAGIDWSGGSTYYADSVKGRFTISRDNAKNTVYLQMNSLKPEDTAVYYCAAEFWLSTDFYYWGQGTQVTVSS”: the “polyreactivity (PSR sort gate)” value is listed as “high polyreactivity”. The result for “QVQLVESGGGLVQAGGSLRLSCAASGFTFLSYTMGWYRQAPGKERELVASITASGTRTYYADSVKGRFTISRDNAKNTVYLQMNRLKPEDTAVYYCAARRSGSGSHDYGYWGQGTQVTVSS” reads “low polyreactivity”. Turning to “QVQLVESGGGLVQAGGSLRLSCAASGFTVSWYVMGWYRQAPGKERELVAAITWSGGNTYADSVKGRFTISRDNAKNTVYLQMNSLKPEDTAVYYCAADPAHGTKWYVYPSHDDYWGQGTQVTVSS”, the “polyreactivity (PSR sort gate)” value is on record as “low polyreactivity”. In the case of “QVQLVESGGGLVQAGGSLRLICAASGRSFQYYVMGWYSQAPGKEWELVAAMNRRGTSTYYADSVKGRFTISRDNAKNTVYLQMNSLKPEDTAVYYCAAVDRDYARTTTYDYWGQGTQVSVSS”, the “polyreactivity (PSR sort gate)” value was “high polyreactivity”.
